Measured values: PMC12284214, “Structural basis for the activity regulation of Medicago calcium channel CNGC15” (Cell Discovery, 2025)

Biological target: the molecule itself
Assay: cryo-EM structure; MtCNGC15b alone, in 25 mM Tris pH 8.0, 150 mM NaCl, 0.006% GDN; 3.1 Å; also with 5 mM cGMP (no structural change)

B1: Medicago truncatula CNGC15b (natural protein, M. truncatula, UniProt G7JND3 1-620, looked up)
chain: MVTPKFMSDLFEGDHLELAKLTSPNGDNGIKFNEKHVAPRVLSRVFSEDYKRVKRRRRIFDPRGQTIHQWNKIFLVACLISLFVDPLFFYLPIVQDEVCIDIGIAVEVFLIIIRSIADVFYVIHIFMRFHTAYVAPSSRVFGRGELVIDSSKIASRYLHKGFFLDFIAALPLPQVLIWIVIPNLGGSTIANTKNVLRFIIIIQYLPRLFLIFPLSSQIVKATGVVTETAWAGAAYNLMLYMLASHVLGACWYLLSIERQEACWKSVCKLEESSCQFDFFDCNMVKDSLRVSWFVTSNVTNLCSPNSLFYQFGIYGDAVTSKVTTSAFFNKYFFCLWWGLRNLSSLGQGLLTSTFVGEIMFAIVIATLGLVLFALLIGNMQTYLQSTTVRLEEWRVKRTDTEQWMHHRQLPQELRQSVRKYDQYKWIATRGVDEESLLRGLPLDLRRDIKRHLCLELVRRVPLFDAMDERMLDAICERLKPALCTENTYLVREGDPVNEMLFIIRGNLDSYTTDGGRTGFFNSCRIGPGDFCGEELLTWALDPRPTMVIPSSTRTVKAISEVEAFALIAEDLKFVASQFRRLHSKQLRNKLRFHSHQWRTWAACFIQVAWRRTIQEKKGSC
notes: residues 58-385 were modelled in the apo map; In the functional rows the protein was made from cRNA in Xenopus oocytes with that signal peptide; also called MtCNGC15b; MtCNGC15; source: HEK293F, transfected; purified (anti-Flag M2, Strep-Tactin, SEC) in GDN; not shown: Flag, C-terminal, kept; TwinStrep, C-terminal, kept
- binding result: binds
